Measurements taken from publication PMC10094569.

Target: human IgG1 Fc, from HEK-293T cells (human)
Experiment: SEC; each protein alone on Superdex 200 in PBS; molecular weights from the filtration patterns

stoichiometry N: 2
Substance: human IgG1 Fc, from HEK-293T cells (domain or fragment)
